Data published in US20260009008A1, “SYNTHETIC GENOME EDITING SYSTEM” (Pencil Biosciences Limited, priority 2021, published 2026).
“Also recorded” adds a separate entry of the source.

What was measured:
Thioflavin T assay = format: physicochemical; conditions: 200 μM peptide, 25 μM ThT, 37° C., excitation 450 nm
Source text: Appropriate self-assembling peptides (alternatively referred to as folding peptides as in a single folding structure) will form a structure which can be identified by thioflavin T (Tht) binding. Fluorescence emission assay of Thioflavin T binding is commonly employed to detect amyloid fibrils. Upon binding to amyloid fibrils, ThT gives a strong fluorescence signal at approximately 482-485 nm when excited at 450 nm (Xue et al. (2017) Royal. Soc. Open Sci. 4:160696, 'Thioflavin T as an amyloid dye: fibril quantification, optimal concentration and effect on aggregation).
Such peptides were tested for ability to self-assemble to provide a β-sheet supramolecular structure and nickase activity. Ability to provide a β-sheet supramolecular structure was determined by thioflavin T fluorescence binding (Xue et al. (2017) Royal Soc. Open Sci. 4:160696). Nickase activity was investigated by means of a molecular beacon assay combined with a gel plasmid cleavage assay.
Thioflavin T (ThT) was mixed with the peptides in reaction buffer solution. Peptides were diluted to 200 μM (from a stock solution of 4.4 mM in DMSO) using a reaction buffer solution (the same buffer as used for the initial molecular beacon assays as set out below). […] The emission signal at 485 nm was measured every 5 minutes using an excitation wavelength of 450 nm. […]

plasmid DNA (pBR322) = assay: Gel plasmid cleavage assay; format: biochemical
Source text: For this reason a further gel plasmid cleavage assay was employed to look for cleavage. Such a gel cleavage assay can differentiate between plasmid that is intact (no cleavage), nicked (ssDNA cleavage) and linearised (dsDNA cleavage) as the three plasmid species will migrate differently on an agarose gel. Intact plasmids have a supercoiled structure and therefore can migrate easily through an agarose gel whereas a ssDNA cleavage on the plasmid will relax this supercoiled structure. This produces a relaxed circle/nicked structure that migrates more slowly through the pores. The dsDNA cleavage of a plasmid produces a linearised plasmid. The linear structure migrates faster than a relaxed circular structure although not as fast as the supercoiled structure.
To optimize the assay, plasmid DNA (pBR322) was mixed with increasing concentrations of the peptide bL or bN, in the presence of Zn^2 + ions. […] The percentage of nicked species increases with greater peptide concentration for both bL and bN. […] An increasing proportion of the plasmid DNA is also observed in the wells of the gel. This DNA can be binding to the peptide causing a complex that is unable to migrate into the gel.

[1] = Observation of peptide aggregation / precipitation; format: physicochemical

With LELDLHL [bD] the “Thioflavin T emission signal at 485 nm (amyloid-like fibrils)” value (Thioflavin T assay) was “high emission signal was measured instantly; also recorded: higher propensity to produce a highly stable amyloid beta sheet structure; also recorded: indicative of production of amyloid β-sheet structure”, the cleavage of plasmid (plasmid DNA (pBR322)) was “some cleavage” and the “percentage of cleavage versus peptide concentration” value (plasmid DNA (pBR322)) was “increase with peptide concentration”. The “aggregation / precipitation of peptide” value [1] was “least propensity to aggregate and to precipitate”.
